For data set [1], the system named is CC(=O)[C@@H](O)[C@H](O)COP(=O)(O)O. Description: purified protein. Conditions: pH 7.8; 22.0 °C.
Data set [2] deals with NC(=O)C1=CN([C@@H]2O[C@H](COP(=O)(O)OP(=O)(O)OC[C@H]3O[C@@H](n4cnc5c(N)ncnc54)[C@H](OP(=O)(O)O)[C@@H]3O)[C@@H](O)[C@H]2O)C=CC1. As to the kind of experiment: purified protein. As to conditions: pH 7.8; 22.0 °C; varied: cofactor.

In general, Km refers to the concentration of substrate that gives half-maximal velocity.

On to “F. tularensis MEP synthase (IspC; 1-deoxy-D-xylulose 5-phosphate reductoisomerase) (Francisella tularensis subsp. holarctica LVS)”, for which the Michaelis constant (Km) in data set [1] is 103.7 ± 12.1 µM; in data set [2] it was 13.3 ± 1.5 µM.

(Values after paper PMC2788227 (PLoS ONE, 2009).)
